Source: the supplement of paper PMC9112550, “Optimization of the antimicrobial peptide Bac7 by deep mutational scanning” (BMC Biology, 2022)

Each sequence was assayed on Escherichia coli TOP10 (assay: shrunken log2 fold change of peptide-encoding DNA abundance (4.5 h post-induction vs induction); higher = less antimicrobial activity (less host growth inhibition)). Details: time post-induction: 4.5 h; library: site-saturation at positions 5, 18, 19, 20.
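Further: peptides expressed intracellularly from a pBAD plasmid library in pooled LB shake-flask culture, induced with 0.3% L-arabinose, DNA abundance read by NGS, three biological replicates, DESeq2 with apeglm shrinkage.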

Sequence | shrunken log2 fold change
RRIRNRPPRLPRPRPRPNSIPRP | -0.728
RRIRNRPPRLPRPRPRPYPEPRP | -1.11
RRIRYRPPRLPRPRPRPVASPRP | -0.163
RRIRCRPPRLPRPRPRPKYEPRP | -0.403
RRIRLRPPRLPRPRPRPIPIPRP | -0.456
RRIRYRPPRLPRPRPRPTRKPRP | 0.00746
RRIRARPPRLPRPRPRPTFKPRP | 0.341
RRIRARPPRLPRPRPRPNHFPRP | -0.0665
RRIRWRPPRLPRPRPRPDHGPRP | -0.104
RRIRKRPPRLPRPRPRPRCAPRP | 0.568
RRIRGRPPRLPRPRPRPFIAPRP | 0.245
RRIRQRPPRLPRPRPRPELKPRP | 0.0791
RRIRARPPRLPRPRPRPWWRPRP | 0.0229
RRIRWRPPRLPRPRPRPFNHPRP | -0.405
RRIRFRPPRLPRPRPRPCMQPRP | -0.163
RRIRGRPPRLPRPRPRPPPQPRP | 1.55
RRIRIRPPRLPRPRPRPCFHPRP | -0.532
RRIRTRPPRLPRPRPRPEVKPRP | 0.174
RRIRMRPPRLPRPRPRPDCVPRP | 1.71
RRIRQRPPRLPRPRPRPSWRPRP | 0.0854
RRIRQRPPRLPRPRPRPNMIPRP | -0.209
RRIRTRPPRLPRPRPRPVNAPRP | -0.189
RRIRARPPRLPRPRPRPNSHPRP | -0.248
RRIRCRPPRLPRPRPRPDQTPRP | -0.00778
RRIRRRPPRLPRPRPRPNEHPRP | -0.118

Sequence | shrunken log2 fold change
RRIRARPPRLPRPRPRPKHGPRP | 0.246
RRIRIRPPRLPRPRPRPTKGPRP | 0.0205
RRIRFRPPRLPRPRPRPGALPRP | 0.0277
RRIRCRPPRLPRPRPRPIGNPRP | -0.221
RRIRCRPPRLPRPRPRPQFWPRP | 0.303
RRIRRRPPRLPRPRPRPPIGPRP | -0.149
RRIRGRPPRLPRPRPRPVEMPRP | 0.556
RRIRQRPPRLPRPRPRPMNTPRP | 0.0106
RRIRSRPPRLPRPRPRPFISPRP | -0.152
RRIRMRPPRLPRPRPRPWWIPRP | -0.442
RRIRKRPPRLPRPRPRPGHRPRP | 0.118
RRIRFRPPRLPRPRPRPEYCPRP | 0.0467
RRIRERPPRLPRPRPRPNHQPRP | -0.259
RRIRHRPPRLPRPRPRPYSVPRP | -0.481
RRIRGRPPRLPRPRPRPFQKPRP | -0.0668
RRIRHRPPRLPRPRPRPPLMPRP | -0.187
RRIRPRPPRLPRPRPRPFHPPRP | -0.255
RRIRVRPPRLPRPRPRPHNYPRP | -0.181
RRIRYRPPRLPRPRPRPEPEPRP | 0.0661
RRIRARPPRLPRPRPRPSILPRP | -0.156
RRIRWRPPRLPRPRPRPTIFPRP | 0.0443
RRIRKRPPRLPRPRPRPSDWPRP | 0.288
RRIRYRPPRLPRPRPRPDKMPRP | -0.0477
RRIRLRPPRLPRPRPRPCEPPRP | 0.023
RRIRCRPPRLPRPRPRPWYFPRP | -0.264

Sequence | shrunken log2 fold change
RRIRVRPPRLPRPRPRPMDHPRP | -0.426
RRIRQRPPRLPRPRPRPDQPPRP | -0.0438
RRIRKRPPRLPRPRPRPQMWPRP | 0.608
RRIRHRPPRLPRPRPRPGFFPRP | 0.0196
RRIRWRPPRLPRPRPRPRKMPRP | 0.382
RRIRTRPPRLPRPRPRPILYPRP | -0.275
RRIRGRPPRLPRPRPRPAVIPRP | 0.232
RRIRKRPPRLPRPRPRPKDRPRP | 0.088
RRIRDRPPRLPRPRPRPITRPRP | 0.0173
RRIRARPPRLPRPRPRPYSIPRP | -0.374
RRIRMRPPRLPRPRPRPDPFPRP | 0.0255
RRIRRRPPRLPRPRPRPAIGPRP | 0.136
RRIRIRPPRLPRPRPRPVSMPRP | 0.0888
RRIRPRPPRLPRPRPRPENKPRP | -0.232
RRIRLRPPRLPRPRPRPMCEPRP | -0.0027
RRIRVRPPRLPRPRPRPEVCPRP | 0.0183
RRIRSRPPRLPRPRPRPTCHPRP | 0.024
RRIRVRPPRLPRPRPRPMLCPRP | 0.121
RRIRCRPPRLPRPRPRPINEPRP | -0.116
RRIRMRPPRLPRPRPRPYNFPRP | -0.363
RRIRWRPPRLPRPRPRPNGYPRP | 0.186
RRIRQRPPRLPRPRPRPNYSPRP | -0.397
RRIRSRPPRLPRPRPRPHASPRP | 0.188
RRIRWRPPRLPRPRPRPGNDPRP | 0.895
RRIRKRPPRLPRPRPRPMPIPRP | 0.0778
